The values that follow come from US20110311550A1 (Scripps Research, published 2011).

Common to all, as to test: ELISA, lectin-captured E1E2 lysate, Ab 1 ug/ml;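 note: E1E2 captured on Galanthus nivalis lectin-coated plates, bound test antibody read out by an HRP-linked secondary antibody and TMB colour development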
Background: In an ELISA, binding on a coated surface is turned into a signal by an enzyme label.

For test [1], the target named is E1E2 complex (H77) with E1 mutation P295A (HCV genotype 1a, isolate H77, UniProt P27958 192-383; P27958 384-746).
Test [2] deals with E1E2 complex (H77) with E1 mutation S307A (HCV genotype 1a, isolate H77, UniProt P27958 192-383; P27958 384-746).
Test [3] has as its target E1E2 complex (H77) with E1 mutation N305A (HCV genotype 1a, isolate H77, UniProt P27958 192-383; P27958 384-746).

B1: N4 IgG (antibody, V domains shown)
VH: VQLLEQSGPEVKKPGDSLRISCKMSGDSLVTTWIGWVRQKPGQGLEWMGIINPGDSSTNIYPGDSATRYGPSFQGQVTISIDKSTSTAYLQWNNVKASDTGIYYCARHVPVPISGTFLWREREMHDFGYFDDWGQGTLVIVSS
VL: ELTLTQSPGTLSLSPGERATLSCRASQSVSNNYLAWYQQKPGQAPRLLIYGASSRATGIPDRFSGSGSGTGFTLIISRLEPEDFAVYYCQQYGSSSITFGQGTRLEIKR
notes: also called IgG N4
Turning to B1, the “Binding relative to wt (%)” value turned out to be 82% in test [1], 58% in test [2] and 42% in test [3].
